Reference: patent US20260159603A1

Target: huCD5-BTN (human) (UniProt P06127)
Assay: BLI in tandem, huCD5-BTN saturated with UCHT2 first; competitor UCHT2

Sequence of huCD5-BTN (human) (P06127 25-372 limits assumed): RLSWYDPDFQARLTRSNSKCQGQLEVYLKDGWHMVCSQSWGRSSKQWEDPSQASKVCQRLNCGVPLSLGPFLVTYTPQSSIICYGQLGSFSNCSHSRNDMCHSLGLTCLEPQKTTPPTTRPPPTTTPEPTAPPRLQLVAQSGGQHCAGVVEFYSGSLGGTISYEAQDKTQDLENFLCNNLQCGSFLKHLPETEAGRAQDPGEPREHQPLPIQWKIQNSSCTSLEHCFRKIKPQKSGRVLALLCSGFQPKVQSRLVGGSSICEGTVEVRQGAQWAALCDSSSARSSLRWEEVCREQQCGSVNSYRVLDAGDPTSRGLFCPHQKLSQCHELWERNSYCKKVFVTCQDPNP

Substance: UCHT2 (antibody)
- response (Response Units): 0
